The subject of this data set is Escherichia coli TOP10. The experiment in a line: shrunken log2 fold change of peptide-encoding DNA abundance (4.5 h post-induction vs induction); higher = less antimicrobial activity (less host growth inhibition). Conditions: time post-induction: 4.5 h; library: site-saturation at positions 5, 18, 19, 20.

The source of these data is the supplement of paper PMC9112550, “Optimization of the antimicrobial peptide Bac7 by deep mutational scanning” (BMC Biology, 2022).
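Also: peptides expressed intracellularly from a pBAD plasmid library in pooled LB shake-flask culture, induced with 0.3% L-arabinose, DNA abundance read by NGS, three biological replicates, DESeq2 with apeglm shrinkage.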

RRIRQRPPRLPRPRPRPDMFPRP: the “shrunken log2 fold change” value was 0.0212.
The value for RRIRVRPPRLPRPRPRPQIKPRP was -0.455; that for RRIRYRPPRLPRPRPRPLYEPRP was -0.562.
With RRIRKRPPRLPRPRPRPDLVPRP the figure was 0.662; with RRIRIRPPRLPRPRPRPMHYPRP, -0.434.
With RRIRHRPPRLPRPRPRPNWGPRP the figure was 0.0702; with RRIRRRPPRLPRPRPRPQYMPRP, -0.234.
With RRIRSRPPRLPRPRPRPTCTPRP, the “shrunken log2 fold change” value worked out at 0.342.
The value for RRIRERPPRLPRPRPRPERNPRP was -0.0672.
As to RRIRIRPPRLPRPRPRPMFKPRP, the “shrunken log2 fold change” value was -0.286.
With RRIRHRPPRLPRPRPRPLIPPRP the figure was -0.244; with RRIRLRPPRLPRPRPRPQHIPRP, -0.812; with RRIRGRPPRLPRPRPRPVAQPRP, 0.719.
With RRIRARPPRLPRPRPRPGWIPRP the figure was 0.161; with RRIRNRPPRLPRPRPRPTESPRP, -0.0455.
In the case of RRIRFRPPRLPRPRPRPEHNPRP, the “shrunken log2 fold change” value was -0.489.
In the case of RRIRFRPPRLPRPRPRPHTFPRP, the “shrunken log2 fold change” value is -0.778.
The value for RRIRQRPPRLPRPRPRPWTIPRP was -0.142; that for RRIRTRPPRLPRPRPRPWNKPRP was -0.594; that for RRIRPRPPRLPRPRPRPVKDPRP was -0.0309.
With RRIRIRPPRLPRPRPRPISCPRP the figure was -0.0154.
With RRIRWRPPRLPRPRPRPRRPPRP the figure was 0.508; with RRIRARPPRLPRPRPRPSCAPRP, 0.689; with RRIRGRPPRLPRPRPRPPQLPRP, 0.824.
Regarding RRIRRRPPRLPRPRPRPKWWPRP, the “shrunken log2 fold change” value was determined as 0.579.
With RRIRSRPPRLPRPRPRPQGSPRP the figure was -0.00511.
The value for RRIRMRPPRLPRPRPRPTCGPRP was 0.942.
For RRIRLRPPRLPRPRPRPWTKPRP, the “shrunken log2 fold change” value was -0.139.
With RRIRYRPPRLPRPRPRPDYQPRP the figure was 0.0202.
With RRIRSRPPRLPRPRPRPVWQPRP the figure was 0.168; with RRIRLRPPRLPRPRPRPMSVPRP, -0.18.
As for RRIRNRPPRLPRPRPRPDDPPRP, the “shrunken log2 fold change” value was -0.0062.
The value for RRIRQRPPRLPRPRPRPHDSPRP was -0.0135; that for RRIRERPPRLPRPRPRPPLAPRP was 0.433.
With RRIRRRPPRLPRPRPRPCDVPRP the figure was -0.0838; with RRIRDRPPRLPRPRPRPQNPPRP, -0.00133.
Regarding RRIRMRPPRLPRPRPRPATCPRP, the “shrunken log2 fold change” value came to 0.398.
With RRIRFRPPRLPRPRPRPINTPRP the figure was -0.761; with RRIRCRPPRLPRPRPRPLACPRP, -0.236; with RRIRNRPPRLPRPRPRPVKNPRP, -0.157.
With RRIRARPPRLPRPRPRPEKSPRP the figure was 1.01.
As to RRIRRRPPRLPRPRPRPPCGPRP, the “shrunken log2 fold change” value turned out to be 0.324.
With RRIRPRPPRLPRPRPRPYCNPRP the figure was -0.481.
In the case of RRIRTRPPRLPRPRPRPFYSPRP, the “shrunken log2 fold change” value was -0.701.
Take RRIRHRPPRLPRPRPRPMMPPRP: the “shrunken log2 fold change” value is -0.365.
The value for RRIRFRPPRLPRPRPRPKLSPRP was -0.258; that for RRIRQRPPRLPRPRPRPCRPPRP was -0.184.
The value for RRIRNRPPRLPRPRPRPCQLPRP was -0.0247.
Regarding RRIRFRPPRLPRPRPRPWGVPRP, the “shrunken log2 fold change” value is -0.517.
For the sequence RRIRQRPPRLPRPRPRPWADPRP, the “shrunken log2 fold change” value came out at 0.00911.
With RRIRRRPPRLPRPRPRPENEPRP the figure was 0.119; with RRIRSRPPRLPRPRPRPTNEPRP, 0.308; with RRIRRRPPRLPRPRPRPMWVPRP, -0.135.
Consider RRIRIRPPRLPRPRPRPPTWPRP, for which the “shrunken log2 fold change” value was -0.101.
Regarding RRIRCRPPRLPRPRPRPCYEPRP, the “shrunken log2 fold change” value is -0.663.
With RRIRDRPPRLPRPRPRPPCKPRP the figure was -0.129; with RRIRSRPPRLPRPRPRPTDMPRP, 0.0156.
With RRIRFRPPRLPRPRPRPQALPRP the figure was -0.137; with RRIRDRPPRLPRPRPRPTEAPRP, 0.405; with RRIRPRPPRLPRPRPRPMPQPRP, -0.0158.
Consider RRIRERPPRLPRPRPRPATGPRP, for which the “shrunken log2 fold change” value is -0.0619.
With RRIRPRPPRLPRPRPRPWMKPRP the figure was -0.0651; with RRIRMRPPRLPRPRPRPMSAPRP, 0.333; with RRIRLRPPRLPRPRPRPRFHPRP, -0.208.
The value for RRIRYRPPRLPRPRPRPWYMPRP was -0.838; that for RRIRKRPPRLPRPRPRPRYCPRP was -0.142; that for RRIRYRPPRLPRPRPRPHESPRP was 0.00952.
With RRIRCRPPRLPRPRPRPNCEPRP the figure was 0.223; with RRIRVRPPRLPRPRPRPLMLPRP, -0.202; with RRIRPRPPRLPRPRPRPIPLPRP, -0.191.
With RRIRYRPPRLPRPRPRPRVEPRP, the “shrunken log2 fold change” value is -0.0337.
The value for RRIRKRPPRLPRPRPRPGAMPRP was 0.639; that for RRIRWRPPRLPRPRPRPKKCPRP was 0.18; that for RRIRIRPPRLPRPRPRPHNVPRP was -0.414.
Consider RRIRGRPPRLPRPRPRPHRSPRP, for which the “shrunken log2 fold change” value worked out at 0.188.
With RRIRMRPPRLPRPRPRPRLKPRP the figure was 1.82.
With RRIRRRPPRLPRPRPRPTVDPRP the figure was 0.615; with RRIRIRPPRLPRPRPRPQNFPRP, 0.0159; with RRIRCRPPRLPRPRPRPMVDPRP, 0.02.
Take RRIRARPPRLPRPRPRPECWPRP: the “shrunken log2 fold change” value was 1.97.
With RRIRWRPPRLPRPRPRPPLSPRP the figure was 0.271.
The value for RRIRLRPPRLPRPRPRPPDEPRP was 0.264.
As for RRIRHRPPRLPRPRPRPTMHPRP, the “shrunken log2 fold change” value is -0.0232.
The value for RRIRYRPPRLPRPRPRPQVEPRP was -0.218; that for RRIRNRPPRLPRPRPRPSSWPRP was 0.0908.
The value for RRIRFRPPRLPRPRPRPQFEPRP was -0.19; that for RRIRFRPPRLPRPRPRPHSIPRP was -0.248.
Take RRIRDRPPRLPRPRPRPADNPRP: the “shrunken log2 fold change” value was -0.0897.
The value for RRIRGRPPRLPRPRPRPYQPPRP was -0.257.
The value for RRIRWRPPRLPRPRPRPYCTPRP was -0.322; that for RRIRRRPPRLPRPRPRPAKFPRP was 0.217; that for RRIRSRPPRLPRPRPRPRGRPRP was 0.375.
In the case of RRIRSRPPRLPRPRPRPHDSPRP, the “shrunken log2 fold change” value was 0.0375.
Take RRIRHRPPRLPRPRPRPMTGPRP: the “shrunken log2 fold change” value is -0.218.
With RRIRQRPPRLPRPRPRPQIAPRP the figure was -0.133; with RRIRARPPRLPRPRPRPWVIPRP, -0.296; with RRIRARPPRLPRPRPRPPRKPRP, 1.1.
The value for RRIRWRPPRLPRPRPRPILYPRP was -0.515.
With RRIRDRPPRLPRPRPRPCAVPRP the figure was 0.189; with RRIRERPPRLPRPRPRPFVVPRP, -0.0043.
For the sequence RRIRVRPPRLPRPRPRPADRPRP, the “shrunken log2 fold change” value is 0.194.
On to RRIRVRPPRLPRPRPRPQLPPRP, for which the “shrunken log2 fold change” value was -0.0715.
With RRIRGRPPRLPRPRPRPGGVPRP the figure was 1.06; with RRIRCRPPRLPRPRPRPMASPRP, -0.00968; with RRIRCRPPRLPRPRPRPSCNPRP, 0.329.
With RRIRPRPPRLPRPRPRPTNIPRP the figure was -0.687; with RRIRGRPPRLPRPRPRPIHYPRP, -0.242; with RRIRFRPPRLPRPRPRPRSKPRP, 0.0303.
With RRIRIRPPRLPRPRPRPFAWPRP the figure was 0.00684; with RRIRMRPPRLPRPRPRPLQKPRP, 1.02; with RRIRFRPPRLPRPRPRPANPPRP, -0.156.
For RRIRRRPPRLPRPRPRPFVQPRP, the “shrunken log2 fold change” value was -0.0288.
With RRIRTRPPRLPRPRPRPKGEPRP the figure was 0.0539; with RRIRCRPPRLPRPRPRPTFYPRP, -0.237; with RRIRFRPPRLPRPRPRPRMIPRP, -0.517.
With RRIRWRPPRLPRPRPRPACTPRP the figure was 0.334.
The value for RRIRDRPPRLPRPRPRPNISPRP was -0.266; that for RRIRKRPPRLPRPRPRPRAYPRP was -0.382; that for RRIRCRPPRLPRPRPRPMQHPRP was -0.173.
For the sequence RRIRTRPPRLPRPRPRPTVEPRP, the “shrunken log2 fold change” value was -0.152.
With RRIRVRPPRLPRPRPRPFTRPRP the figure was 0.114; with RRIRKRPPRLPRPRPRPYTEPRP, -0.295; with RRIRQRPPRLPRPRPRPVAEPRP, 0.478.
Regarding RRIRGRPPRLPRPRPRPRTSPRP, the “shrunken log2 fold change” value stood at 0.763.
In the case of RRIRNRPPRLPRPRPRPLKDPRP, the “shrunken log2 fold change” value is -0.0618.
